# Laboratory results reported in EP1471146A2 (Novartis AG, dated 2004).
# B1: recombinant adenovirus type 5 (Ad5) fiber protein expressed from pCLF in cell lines 211A, 211B and 211R (other)
# chain: MKRARPSEDTFNPVYPYDTETGPPTVPFLTPPFVSPNGFQESPPGVLSLRLSEPLVTSNGMLALKMGNGLSLDEAGNLTSQNVTTVSPPLKKTKSNINLEISAPLTVTSEALTVAAAAPLMVAGNTLTMQSQAPLTVHDSKLSIATQGPLTVSEGKLALQTSGPLTTTDSSTLTITASPPLTTATGSLGIDLKEPIYTQNGKLGLKYGAPLHVTDDLNTLTVATGPGVTINNTSLQTKVTGALGFDSQGNMQLNVAGGLRIDSQNRRLILDVSYPFDAQNQLNLRLGQGPLFINSAHNLDINYNKGLYLFTASNNSKKLEVNLSTAKGLMFDATAIAINAGDGLEFGSPNAPNTNPLKTKIGHGLEFDSNKAMVPKLGTGLSFDSTGAITVGNKNNDKLTLWTTPAPSPNCRLNAEKDAKLTLVLTKCGSQILATVSVLAVKGSLAPISGTVQSAHLIIRFDENGVLLNNSFLDPEYWNFRNGDLTEGTAYTNAVGFMPNLSAYPKSHGKTAKSNIVSQVYLNGDKTKPVTLTITLNGTQETGDTTPSAYSMSFSWDWSGHNYINEIFATSSYTFSYIAQE
# notes: Monomer 62 kD, homotrimer 186 kD; Expressed in 293-derived lines 211A, 211B and 211R; also called recombinant fiber; type 5 fiber protein
# Target: the molecule itself
# Test: Western blot of soluble nuclear extracts, seminative electrophoresis (self-association, homotrimer)
protein,measurement,value
B1,binding result,binds
